Source: US7842460B2, “Method for assessing proteolytic enzyme activity using ubiquitin fusion substrate” (Progenra Inc., priority 2004, dated 2010)

Tests used:
[1] = biological target: T1, yeast ULP1 protein (SUMO protease catalytic domain) (Saccharomyces cerevisiae, UniProt Q02724); assay: Cleavage of SUMO-GPATase by yeast ULP1 (SDS-PAGE); format: biochemical; conditions: 3 hours
T1 construct: treatment with the yeast ULP1 protein (SUMO protease catalytic domain)
T1 sequence (Q02724 432-621 limits assumed): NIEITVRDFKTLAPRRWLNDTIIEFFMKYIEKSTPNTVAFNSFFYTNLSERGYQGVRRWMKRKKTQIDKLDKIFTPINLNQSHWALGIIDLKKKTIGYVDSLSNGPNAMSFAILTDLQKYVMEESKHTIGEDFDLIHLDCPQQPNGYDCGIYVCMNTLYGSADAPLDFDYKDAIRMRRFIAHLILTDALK
Experimental: The SUMO protein was cleaved from a SUMO-GPATase fusion protein by treatment with the yeast ULP1 protein (SUMO protease catalytic domain). Approximately 5 μg SUMO-GPATase were incubated at 30° C. for 3 hours with increasing concentrations of the ULP1 enzyme in a reaction mixture containing 50 mM Tris-HCl pH 7.5, 1 mM EDTA, 10 mM DTT. The reaction was quenched by addition of SDS-PAGE sample buffer, heated, and loaded directly on a 12% SDS-polyacrylamide gel, and electrophoresed. After electrophoresis, the gel was stained to visualize the proteins. […] This inability of the ULP1 enzyme to cut the fusion protein may reflect the occurrence of steric hindrance around the cleavage site, or some partial modification of the junction sequence, e.g. oxidation of the Cysteine residue at the amino-terminal end of GPATase.

ULP1 SUMO protease = biological target: T2, ULP1 SUMO protease (Saccharomyces cerevisiae, UniProt Q02724); assay: In vitro GPATase activity assay (coupled GDH assay) of fusion -/+ Ulp1; format: biochemical, yeast
T2 construct: treatment with the yeast ULP1 protein (SUMO protease catalytic domain)
T2 sequence (Q02724 432-621 limits assumed): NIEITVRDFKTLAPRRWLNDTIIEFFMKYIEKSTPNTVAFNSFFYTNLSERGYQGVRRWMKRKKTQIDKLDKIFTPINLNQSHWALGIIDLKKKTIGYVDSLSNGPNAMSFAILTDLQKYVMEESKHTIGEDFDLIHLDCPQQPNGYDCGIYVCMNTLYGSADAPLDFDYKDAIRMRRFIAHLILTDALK
Text: GPATase, a glutaminase enzyme, hydrolizes 5-phospho ribosyl pyrophosphate (PRPP) […], 5-phosphoribosyl-(b)1-amine (PRA) and pyrophosphate (PPi). This glutaminase reaction was monitored by measuring the production of glutamate by means of a coupled glutamate dehydrogenase (GDH) assay under standard reaction conditions described by Messenger and Zalkin (1979).
[…]
The coupled GDH assay employed to assess GPATase activity was examined for accuracy. Increasing amounts of the purified SUMO-GPATase fusion protein, either untreated or cleaved by the ULP1 SUMO protease, were incubated in the presence of glutamine and PRPP for a fixed period of time, and the completed reaction was then used as substrate in a GDH assay. […] This is particularly so at enzyme concentrations of 1 μg or less. Thus, the amount of NAD^+ reduced in the GDH reaction directly correlates with the amount of active GPATase enzyme in the initial reaction. In addition, treatment with ULP1 results in at least a 10-fold increase in the glutaminase activity of GPATase, despite the fact that only partial cleavage of SUMO-GPATase has been observed thus far.

amount of Ulp1 at which cleavage of the fusion was demonstrated ([1]; approx. 5 μg SUMO-GPATase, 30° C.): 0.009 units
completeness of cleavage ([1]; with as much as 78.3 Units Ulp1, 30° C.): cleavage was never fully achieved
B1: SUMO-GPATase: Fusion of SUMO (Smt3) C-terminal Gly-Gly to mature E. coli glutamine phosphoribosylpyrophosphate amidotransferase N-terminus (protein)
chain: CGIVGIAGVMPVNQSIYDALTVLQHRGQDAAGIITIDANNCFRLRKANGLVSDVFEARHMQRLQGNMGIGHVRYPTAGSSSASEAQPFYVNSPYGITLAHNGNLTNAHELRKKLFEEKRRHINTTSDSEILLNIFASELDNFRHYPLEADNIFAAIAATNRLIRGAYACVAMIIGHGMVAFRDPNGIRPLVLGKRDIDENRTEYMVASESVALDTLGFDFLRDVAPGEAIYITEEGQLFTRQCADNPVSNPCLFEYVYFARPDSFIDKISVYSARVNMGTKLGEKIAREWEDLDIDVVIPIPETSCDIALEIARILGKPYRQGFVKNRYVGRTFIMPGQQLRRKSVRRKLNANRAEFRDKNVLLVDDSIVRGTTSEQIIEMAREAGAKKVYLASAAPEIRFPNVYGIDMPSATELIAHGREVDEIRQIIGADGLIFQDLNDLIDAVRAENPDIQQFECSVFNGVYVTKDVDQGYLDFLDTLRNDDAKAVQRQNEVENLEMHNEG
modifications: left off: large carriers
notes: Fusion of SUMO (Smt3) C-terminal Gly-Gly to mature E. coli glutamine phosphoribosylpyrophosphate amidotransferase N-terminus
increase in the glutaminase activity of GPATase on treatment with ULP1 (ULP1 SUMO protease; ULP1-cleaved vs untreated fusion, only partial cleavage): ≥ 10 fold
absorbance at OD 363 in GDH assay (GPATase activity) (ULP1 SUMO protease; absence of Ulp1): this increase of absorbance did not occur
absorbance at OD 363 in GDH assay (GPATase activity) (ULP1 SUMO protease; fusion incubated 30 minutes with Ulp1): an increase is absorbance
